Measurements: patent US20230097015A1 (SEOUL NATIONAL UNIVERSITY R AND DB FOUNDATION, published 2023)

What was measured:
TycC COM^A-CHS = molecular target: T1, TycC COM^A-CHS
T1 chain: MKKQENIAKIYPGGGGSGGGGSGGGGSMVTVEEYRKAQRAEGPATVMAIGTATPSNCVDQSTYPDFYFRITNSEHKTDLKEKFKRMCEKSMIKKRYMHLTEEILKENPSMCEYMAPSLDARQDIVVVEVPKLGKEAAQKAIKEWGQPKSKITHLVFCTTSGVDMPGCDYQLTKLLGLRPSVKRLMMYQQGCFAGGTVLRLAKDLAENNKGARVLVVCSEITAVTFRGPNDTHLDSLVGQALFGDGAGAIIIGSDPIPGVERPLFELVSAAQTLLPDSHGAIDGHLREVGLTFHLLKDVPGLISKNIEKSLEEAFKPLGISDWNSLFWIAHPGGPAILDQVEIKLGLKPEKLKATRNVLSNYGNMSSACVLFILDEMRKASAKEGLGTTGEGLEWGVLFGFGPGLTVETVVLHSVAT

MlnE COM^A-CHS = molecular target: T2, MlnE COM^A-CHS
T2 chain: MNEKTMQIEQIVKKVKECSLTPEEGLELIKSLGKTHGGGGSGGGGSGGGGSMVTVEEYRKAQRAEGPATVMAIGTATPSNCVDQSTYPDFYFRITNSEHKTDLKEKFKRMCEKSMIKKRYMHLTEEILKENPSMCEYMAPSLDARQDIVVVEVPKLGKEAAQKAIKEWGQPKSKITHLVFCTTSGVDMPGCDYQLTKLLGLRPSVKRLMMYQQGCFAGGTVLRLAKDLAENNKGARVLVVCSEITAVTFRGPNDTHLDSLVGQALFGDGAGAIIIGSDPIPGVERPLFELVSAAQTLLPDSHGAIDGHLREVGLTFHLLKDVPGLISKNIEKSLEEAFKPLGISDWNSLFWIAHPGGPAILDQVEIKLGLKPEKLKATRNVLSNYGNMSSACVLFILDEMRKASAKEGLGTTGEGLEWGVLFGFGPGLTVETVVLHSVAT

Kj12C COM^A-CHS = molecular target: T3, Kj12C COM^A-CHS
T3 chain: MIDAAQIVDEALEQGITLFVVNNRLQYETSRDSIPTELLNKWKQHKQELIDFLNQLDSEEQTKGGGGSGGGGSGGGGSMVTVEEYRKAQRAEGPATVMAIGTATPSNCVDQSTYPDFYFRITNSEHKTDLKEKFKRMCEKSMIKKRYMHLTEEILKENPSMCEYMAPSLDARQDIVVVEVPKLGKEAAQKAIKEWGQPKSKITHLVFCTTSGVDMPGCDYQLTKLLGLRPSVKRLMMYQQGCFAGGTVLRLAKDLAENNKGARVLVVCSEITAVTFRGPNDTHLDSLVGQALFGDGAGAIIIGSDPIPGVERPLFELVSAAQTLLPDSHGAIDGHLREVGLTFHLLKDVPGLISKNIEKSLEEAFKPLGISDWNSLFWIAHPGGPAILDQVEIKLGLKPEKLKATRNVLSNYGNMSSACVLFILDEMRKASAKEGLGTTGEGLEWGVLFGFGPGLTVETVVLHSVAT

MlnC COM^A-AAL = molecular target: T4, MlnC COM^A-AAL
T4 chain: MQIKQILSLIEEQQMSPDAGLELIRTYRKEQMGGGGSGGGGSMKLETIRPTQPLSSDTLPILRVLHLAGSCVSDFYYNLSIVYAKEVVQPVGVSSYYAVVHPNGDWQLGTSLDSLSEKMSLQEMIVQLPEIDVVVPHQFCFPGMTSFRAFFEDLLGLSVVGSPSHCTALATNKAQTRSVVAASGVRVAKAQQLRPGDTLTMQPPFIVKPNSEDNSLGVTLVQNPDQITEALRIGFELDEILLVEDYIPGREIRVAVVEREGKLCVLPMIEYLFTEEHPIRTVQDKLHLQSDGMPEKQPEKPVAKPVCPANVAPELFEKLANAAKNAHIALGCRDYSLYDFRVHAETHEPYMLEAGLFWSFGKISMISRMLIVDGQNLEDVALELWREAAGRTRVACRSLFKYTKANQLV

4CL-MlnB COM^D = molecular target: T5, 4CL-MlnB COM^D (Bacillus amyloliquefaciens, UniProt Q42524 1-561); assay: analytical SEC-FPLC of a 1:1 mixture and native PAGE
T5 construct: Unlabelled protein as used in SEC/native PAGE and in the two-step naringenin reaction; also called 4-coumarate-CoA ligase fused to MlnB COM donor domain; not shown: N-terminal His-tag from pET15b vector
T5 sequence: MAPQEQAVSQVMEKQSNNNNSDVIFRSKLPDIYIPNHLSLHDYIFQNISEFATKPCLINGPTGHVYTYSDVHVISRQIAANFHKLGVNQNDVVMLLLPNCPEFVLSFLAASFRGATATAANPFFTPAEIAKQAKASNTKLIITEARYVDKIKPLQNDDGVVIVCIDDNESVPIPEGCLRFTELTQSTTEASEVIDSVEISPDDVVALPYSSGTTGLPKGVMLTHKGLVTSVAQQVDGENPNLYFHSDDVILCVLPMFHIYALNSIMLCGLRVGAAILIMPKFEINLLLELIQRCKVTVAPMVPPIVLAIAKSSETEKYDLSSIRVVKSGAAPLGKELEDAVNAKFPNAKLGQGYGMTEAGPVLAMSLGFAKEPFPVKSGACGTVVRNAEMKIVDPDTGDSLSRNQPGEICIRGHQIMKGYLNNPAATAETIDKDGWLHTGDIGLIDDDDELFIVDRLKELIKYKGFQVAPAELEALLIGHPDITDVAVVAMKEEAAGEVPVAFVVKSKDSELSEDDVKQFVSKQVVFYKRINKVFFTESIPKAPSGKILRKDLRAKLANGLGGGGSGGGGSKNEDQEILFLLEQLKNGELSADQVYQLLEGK

[1] = molecular target: T6, Cy3-labeled 4CL-MlnB COM^D (Bacillus amyloliquefaciens, UniProt Q42524 1-561, Cy3-NHS ester linked to naturally occurring lysine residues (positions not stated)); assay: Cy3/Cy5 FRET, three channels
T6 construct: Dye-labelled form used in the three-channel FRET analysis; also called 4CL-MlnB COMD labeled with Cy3; not shown: N-terminal His-tag from pET15b vector
T6 sequence: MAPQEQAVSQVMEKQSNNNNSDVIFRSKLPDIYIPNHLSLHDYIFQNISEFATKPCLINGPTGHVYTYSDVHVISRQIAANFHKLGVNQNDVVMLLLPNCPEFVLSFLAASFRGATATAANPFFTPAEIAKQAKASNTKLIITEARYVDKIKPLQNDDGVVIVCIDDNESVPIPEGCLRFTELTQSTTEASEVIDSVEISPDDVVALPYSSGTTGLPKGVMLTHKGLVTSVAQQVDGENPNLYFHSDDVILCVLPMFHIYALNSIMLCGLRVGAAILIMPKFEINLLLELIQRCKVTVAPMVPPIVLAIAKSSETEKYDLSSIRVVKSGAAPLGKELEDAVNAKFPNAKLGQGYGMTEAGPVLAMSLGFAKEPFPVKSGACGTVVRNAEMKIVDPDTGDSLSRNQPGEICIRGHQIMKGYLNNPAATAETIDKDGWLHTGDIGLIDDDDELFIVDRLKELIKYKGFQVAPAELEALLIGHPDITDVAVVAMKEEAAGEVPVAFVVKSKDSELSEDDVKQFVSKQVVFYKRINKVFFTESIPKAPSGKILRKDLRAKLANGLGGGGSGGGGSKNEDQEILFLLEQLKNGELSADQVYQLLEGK

B1: 4CL-TycB COM^D (protein)
chain: MAPQEQAVSQVMEKQSNNNNSDVIFRSKLPDIYIPNHLSLHDYIFQNISEFATKPCLINGPTGHVYTYSDVHVISRQIAANFHKLGVNQNDVVMLLLPNCPEFVLSFLAASFRGATATAANPFFTPAEIAKQAKASNTKLIITEARYVDKIKPLQNDDGVVIVCIDDNESVPIPEGCLRFTELTQSTTEASEVIDSVEISPDDVVALPYSSGTTGLPKGVMLTHKGLVTSVAQQVDGENPNLYFHSDDVILCVLPMFHIYALNSIMLCGLRVGAAILIMPKFEINLLLELIQRCKVTVAPMVPPIVLAIAKSSETEKYDLSSIRVVKSGAAPLGKELEDAVNAKFPNAKLGQGYGMTEAGPVLAMSLGFAKEPFPVKSGACGTVVRNAEMKIVDPDTGDSLSRNQPGEICIRGHQIMKGYLNNPAATAETIDKDGWLHTGDIGLIDDDDELFIVDRLKELIKYKGFQVAPAELEALLIGHPDITDVAVVAMKEEAAGEVPVAFVVKSKDSELSEDDVKQFVSKQVVFYKRINKVFFTESIPKAPSGKILRKDLRAKLANGLGGGGSGGGGSEYTPSDLGDEELSMEELENILEWI
- production of naringenin (UPLC-qTOF-HR-MS), two-step in vitro reaction (TycC COM^A-CHS): the productivity by the metabolons with the remaining four pairs showed improvement

B2: 4CL-MlnD COM^D (protein)
chain: MAPQEQAVSQVMEKQSNNNNSDVIFRSKLPDIYIPNHLSLHDYIFQNISEFATKPCLINGPTGHVYTYSDVHVISRQIAANFHKLGVNQNDVVMLLLPNCPEFVLSFLAASFRGATATAANPFFTPAEIAKQAKASNTKLIITEARYVDKIKPLQNDDGVVIVCIDDNESVPIPEGCLRFTELTQSTTEASEVIDSVEISPDDVVALPYSSGTTGLPKGVMLTHKGLVTSVAQQVDGENPNLYFHSDDVILCVLPMFHIYALNSIMLCGLRVGAAILIMPKFEINLLLELIQRCKVTVAPMVPPIVLAIAKSSETEKYDLSSIRVVKSGAAPLGKELEDAVNAKFPNAKLGQGYGMTEAGPVLAMSLGFAKEPFPVKSGACGTVVRNAEMKIVDPDTGDSLSRNQPGEICIRGHQIMKGYLNNPAATAETIDKDGWLHTGDIGLIDDDDELFIVDRLKELIKYKGFQVAPAELEALLIGHPDITDVAVVAMKEEAAGEVPVAFVVKSKDSELSEDDVKQFVSKQVVFYKRINKVFFTESIPKAPSGKILRKDLRAKLANGLGGGGSGGGGSDTADGEIMSLLEKAQTGEMNTKETSELIEELLFHE
- production of naringenin (UPLC-qTOF-HR-MS), two-step in vitro reaction (MlnE COM^A-CHS): the productivity by the metabolons with the remaining four pairs showed improvement

B3: 4CL-Kj12B COM^D (protein)
chain: MAPQEQAVSQVMEKQSNNNNSDVIFRSKLPDIYIPNHLSLHDYIFQNISEFATKPCLINGPTGHVYTYSDVHVISRQIAANFHKLGVNQNDVVMLLLPNCPEFVLSFLAASFRGATATAANPFFTPAEIAKQAKASNTKLIITEARYVDKIKPLQNDDGVVIVCIDDNESVPIPEGCLRFTELTQSTTEASEVIDSVEISPDDVVALPYSSGTTGLPKGVMLTHKGLVTSVAQQVDGENPNLYFHSDDVILCVLPMFHIYALNSIMLCGLRVGAAILIMPKFEINLLLELIQRCKVTVAPMVPPIVLAIAKSSETEKYDLSSIRVVKSGAAPLGKELEDAVNAKFPNAKLGQGYGMTEAGPVLAMSLGFAKEPFPVKSGACGTVVRNAEMKIVDPDTGDSLSRNQPGEICIRGHQIMKGYLNNPAATAETIDKDGWLHTGDIGLIDDDDELFIVDRLKELIKYKGFQVAPAELEALLIGHPDITDVAVVAMKEEAAGEVPVAFVVKSKDSELSEDDVKQFVSKQVVFYKRINKVFFTESIPKAPSGKILRKDLRAKLANGLGGGGSGGGGSLLKEKRKHFQAEQNSSQEYLRGEI
- production of naringenin (UPLC-qTOF-HR-MS), two-step in vitro reaction (Kj12C COM^A-CHS): productivity by 2-step metabolon_5, Kj12B-C was found similar to that by free enzymes (2-step_control: Free)

B4: MlnB COM^D-CNL (protein)
chain: KNEDQEILFLLEQLKNGELSADQVYQLLEGKGGGSMAQSISLSLPQSTTPSKGVRLKIAALLKTIGTLILLLIALPLNALIVLISLMCRPFTKKPAVATHPQNILVSGGKMTKALQLARSFHAAGHRVILIEGHKYWLSGHRFSNSVSRFYTVPAPQDDPEGYTQALLEIVKREKIDVYVPVCSPVASYYDSLAKSALSEYCEVFHFDADITKMLDDKFAFTDRARSLGLSAPKSFKITDPEQVINFDFSKETRKYILKSISYDSVRRLNLTKLPCDTPEETAAFVKSLPISPEKPWIMQEFIPGKELCTHSTVRDGELRLHCCSNSSAFQINYENVENPQIQEWVQHFVKSLRLTGQISLDFIQAEDGTAYAIECNPRTHSAITMFYNHPGVAEAYLGKTPLAAPLEPLADSKPTYWIYHEIWRLTGIRSGQQLQTWFGRLVRGTDAIYRLDDPIPFLTLHHWQITLLLLQNLQRLKGWVKIDFNIGKLVELGGD
- shinorine production in Saccharomyces cerevisiae (HPLC), against free or singly fused CNL and AAL (MlnC COM^A-AAL): shinorine production increased by about 1.3 times

B5: MlnC COM^A-CHS (enzyme)
chain: MQIKQILSLIEEQQMSPDAGLELIRTYRKEQMGGGGSGGGGSGGGGSMVTVEEYRKAQRAEGPATVMAIGTATPSNCVDQSTYPDFYFRITNSEHKTDLKEKFKRMCEKSMIKKRYMHLTEEILKENPSMCEYMAPSLDARQDIVVVEVPKLGKEAAQKAIKEWGQPKSKITHLVFCTTSGVDMPGCDYQLTKLLGLRPSVKRLMMYQQGCFAGGTVLRLAKDLAENNKGARVLVVCSEITAVTFRGPNDTHLDSLVGQALFGDGAGAIIIGSDPIPGVERPLFELVSAAQTLLPDSHGAIDGHLREVGLTFHLLKDVPGLISKNIEKSLEEAFKPLGISDWNSLFWIAHPGGPAILDQVEIKLGLKPEKLKATRNVLSNYGNMSSACVLFILDEMRKASAKEGLGTTGEGLEWGVLFGFGPGLTVETVVLHSVAT
notes: Unlabelled protein as used in SEC/native PAGE and in the two-step naringenin reaction; also called chalcone synthase fused to MlnC COM acceptor domain; not shown: C-terminal His-tag from pET21c vector
- binding result (4CL-MlnB COM^D): binds

B6: Cy5-labeled MlnC COM^A-CHS (enzyme)
chain: MQIKQILSLIEEQQMSPDAGLELIRTYRKEQMGGGGSGGGGSGGGGSMVTVEEYRKAQRAEGPATVMAIGTATPSNCVDQSTYPDFYFRITNSEHKTDLKEKFKRMCEKSMIKKRYMHLTEEILKENPSMCEYMAPSLDARQDIVVVEVPKLGKEAAQKAIKEWGQPKSKITHLVFCTTSGVDMPGCDYQLTKLLGLRPSVKRLMMYQQGCFAGGTVLRLAKDLAENNKGARVLVVCSEITAVTFRGPNDTHLDSLVGQALFGDGAGAIIIGSDPIPGVERPLFELVSAAQTLLPDSHGAIDGHLREVGLTFHLLKDVPGLISKNIEKSLEEAFKPLGISDWNSLFWIAHPGGPAILDQVEIKLGLKPEKLKATRNVLSNYGNMSSACVLFILDEMRKASAKEGLGTTGEGLEWGVLFGFGPGLTVETVVLHSVAT
modifications: Cy5-NHS ester linked to naturally occurring lysine residues (positions not stated)
notes: Dye-labelled form used in the three-channel FRET analysis; also called MlnC COMA-CHS labeled with Cy5; not shown: C-terminal His-tag from pET21c vector
- binding result [1]: binds
